Source: the supplement of paper PMC9112550, “Optimization of the antimicrobial peptide Bac7 by deep mutational scanning” (BMC Biology, 2022)

These sequences were tested on Escherichia coli TOP10 (assay: shrunken log2 fold change of peptide-encoding DNA abundance (4.5 h post-induction vs induction); higher = less antimicrobial activity (less host growth inhibition)). Conditions: time post-induction: 4.5 h; library: site-saturation at positions 5, 18, 19, 20.
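Further: peptides expressed intracellularly from a pBAD plasmid library in pooled LB shake-flask culture, induced with 0.3% L-arabinose, DNA abundance read by NGS, three biological replicates, DESeq2 with apeglm shrinkage.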

Question: For RRIRDRPPRLPRPRPRPDLNPRP, which “shrunken log2 fold change” value is on record?
Answer: -0.041

Question: With RRIRDRPPRLPRPRPRPDLVPRP as the sequence, how does the “shrunken log2 fold change” value read?
Answer: 1.16

Question: RRIRDRPPRLPRPRPRPDNIPRP was tested. Which “shrunken log2 fold change” value did it give?
Answer: -0.112

Question: How did the “shrunken log2 fold change” value turn out when RRIRDRPPRLPRPRPRPDPLPRP was run?
Answer: 0.64

Question: For RRIRDRPPRLPRPRPRPDQWPRP, which “shrunken log2 fold change” value is on record?
Answer: 0.396

Question: Which “shrunken log2 fold change” value does the source give for RRIRDRPPRLPRPRPRPDREPRP here?
Answer: -0.0481

Question: For RRIRDRPPRLPRPRPRPDRWPRP, which “shrunken log2 fold change” value is on record?
Answer: 0.366

Question: RRIRDRPPRLPRPRPRPDTCPRP was tested. Which “shrunken log2 fold change” value did it give?
Answer: 0.00173

Question: For RRIRDRPPRLPRPRPRPDVTPRP, which “shrunken log2 fold change” value is on record?
Answer: 0.149

Question: RRIRDRPPRLPRPRPRPDVVPRP was tested. Which “shrunken log2 fold change” value did it give?
Answer: -0.0108

Question: Which “shrunken log2 fold change” value does the source give for RRIRDRPPRLPRPRPRPDYCPRP here?
Answer: -0.045

Question: For RRIRDRPPRLPRPRPRPEAAPRP, which “shrunken log2 fold change” value is on record?
Answer: 1.84

Question: How did the “shrunken log2 fold change” value turn out when RRIRDRPPRLPRPRPRPEAMPRP was run?
Answer: -0.00943

Question: Which “shrunken log2 fold change” value does the source give for RRIRDRPPRLPRPRPRPECCPRP here?
Answer: 0.828

Question: For RRIRDRPPRLPRPRPRPEDEPRP, which “shrunken log2 fold change” value is on record?
Answer: 1.76

Question: RRIRDRPPRLPRPRPRPEFFPRP was tested. Which “shrunken log2 fold change” value did it give?
Answer: 0.896

Question: Which “shrunken log2 fold change” value does the source give for RRIRDRPPRLPRPRPRPEGDPRP here?
Answer: 0.502

Question: Which “shrunken log2 fold change” value does the source give for RRIRDRPPRLPRPRPRPEGFPRP here?
Answer: 0.638

Question: How did the “shrunken log2 fold change” value turn out when RRIRDRPPRLPRPRPRPEHQPRP was run?
Answer: -0.012

Question: Which “shrunken log2 fold change” value does the source give for RRIRDRPPRLPRPRPRPEKDPRP here?
Answer: 0.194

Question: RRIRDRPPRLPRPRPRPEKKPRP was tested. Which “shrunken log2 fold change” value did it give?
Answer: -0.0317

Question: With RRIRDRPPRLPRPRPRPELLPRP as the sequence, how does the “shrunken log2 fold change” value read?
Answer: 0.011

Question: With RRIRDRPPRLPRPRPRPENNPRP as the sequence, how does the “shrunken log2 fold change” value read?
Answer: 0.264

Question: With RRIRDRPPRLPRPRPRPEPPPRP as the sequence, how does the “shrunken log2 fold change” value read?
Answer: 1.06

Question: With RRIRDRPPRLPRPRPRPESIPRP as the sequence, how does the “shrunken log2 fold change” value read?
Answer: -0.0509

Question: How did the “shrunken log2 fold change” value turn out when RRIRDRPPRLPRPRPRPESKPRP was run?
Answer: 0.0201

Question: How did the “shrunken log2 fold change” value turn out when RRIRDRPPRLPRPRPRPESLPRP was run?
Answer: 1.01

Question: With RRIRDRPPRLPRPRPRPEWDPRP as the sequence, how does the “shrunken log2 fold change” value read?
Answer: 1.4

Question: For RRIRDRPPRLPRPRPRPEWSPRP, which “shrunken log2 fold change” value is on record?
Answer: 0.364

Question: RRIRDRPPRLPRPRPRPEYLPRP was tested. Which “shrunken log2 fold change” value did it give?
Answer: 0.0986

Question: RRIRDRPPRLPRPRPRPEYNPRP was tested. Which “shrunken log2 fold change” value did it give?
Answer: -0.116

Question: Which “shrunken log2 fold change” value does the source give for RRIRDRPPRLPRPRPRPFAFPRP here?
Answer: 0.249

Question: Which “shrunken log2 fold change” value does the source give for RRIRDRPPRLPRPRPRPFCYPRP here?
Answer: 0.0322

Question: For RRIRDRPPRLPRPRPRPFDEPRP, which “shrunken log2 fold change” value is on record?
Answer: 0.0788

Question: With RRIRDRPPRLPRPRPRPFDQPRP as the sequence, how does the “shrunken log2 fold change” value read?
Answer: -0.115

Question: For RRIRDRPPRLPRPRPRPFDWPRP, which “shrunken log2 fold change” value is on record?
Answer: 0.374

Question: For RRIRDRPPRLPRPRPRPFEYPRP, which “shrunken log2 fold change” value is on record?
Answer: -0.00586

Question: RRIRDRPPRLPRPRPRPFHIPRP was tested. Which “shrunken log2 fold change” value did it give?
Answer: -0.254

Question: Which “shrunken log2 fold change” value does the source give for RRIRDRPPRLPRPRPRPFKYPRP here?
Answer: 0.0966

Question: Which “shrunken log2 fold change” value does the source give for RRIRDRPPRLPRPRPRPFMNPRP here?
Answer: -0.117

Question: RRIRDRPPRLPRPRPRPFNHPRP was tested. Which “shrunken log2 fold change” value did it give?
Answer: -0.368

Question: With RRIRDRPPRLPRPRPRPFPAPRP as the sequence, how does the “shrunken log2 fold change” value read?
Answer: 0.0806

Question: With RRIRDRPPRLPRPRPRPFQPPRP as the sequence, how does the “shrunken log2 fold change” value read?
Answer: 0.0201

Question: How did the “shrunken log2 fold change” value turn out when RRIRDRPPRLPRPRPRPFRKPRP was run?
Answer: -0.0314

Question: For RRIRDRPPRLPRPRPRPFSCPRP, which “shrunken log2 fold change” value is on record?
Answer: 0.171

Question: For RRIRDRPPRLPRPRPRPFVHPRP, which “shrunken log2 fold change” value is on record?
Answer: -0.0617

Question: With RRIRDRPPRLPRPRPRPFWAPRP as the sequence, how does the “shrunken log2 fold change” value read?
Answer: 0.141

Question: RRIRDRPPRLPRPRPRPFWFPRP was tested. Which “shrunken log2 fold change” value did it give?
Answer: 0.0429

Question: With RRIRDRPPRLPRPRPRPFYHPRP as the sequence, how does the “shrunken log2 fold change” value read?
Answer: -0.124

Question: For RRIRDRPPRLPRPRPRPGDIPRP, which “shrunken log2 fold change” value is on record?
Answer: -0.0568

Question: Which “shrunken log2 fold change” value does the source give for RRIRDRPPRLPRPRPRPGDLPRP here?
Answer: 0.178

Question: For RRIRDRPPRLPRPRPRPGDNPRP, which “shrunken log2 fold change” value is on record?
Answer: 2.29

Question: For RRIRDRPPRLPRPRPRPGDTPRP, which “shrunken log2 fold change” value is on record?
Answer: -0.11

Question: For RRIRDRPPRLPRPRPRPGEDPRP, which “shrunken log2 fold change” value is on record?
Answer: -0.000687

Question: For RRIRDRPPRLPRPRPRPGERPRP, which “shrunken log2 fold change” value is on record?
Answer: 0.276

Question: Which “shrunken log2 fold change” value does the source give for RRIRDRPPRLPRPRPRPGFMPRP here?
Answer: 0.219

Question: How did the “shrunken log2 fold change” value turn out when RRIRDRPPRLPRPRPRPGFSPRP was run?
Answer: 0.0888

Question: With RRIRDRPPRLPRPRPRPGGGPRP as the sequence, how does the “shrunken log2 fold change” value read?
Answer: 1.08

Question: RRIRDRPPRLPRPRPRPGGLPRP was tested. Which “shrunken log2 fold change” value did it give?
Answer: 0.501

Question: How did the “shrunken log2 fold change” value turn out when RRIRDRPPRLPRPRPRPGHKPRP was run?
Answer: 0.00794

Question: Which “shrunken log2 fold change” value does the source give for RRIRDRPPRLPRPRPRPGHMPRP here?
Answer: -0.0968

Question: With RRIRDRPPRLPRPRPRPGHQPRP as the sequence, how does the “shrunken log2 fold change” value read?
Answer: 0.137

Question: With RRIRDRPPRLPRPRPRPGLDPRP as the sequence, how does the “shrunken log2 fold change” value read?
Answer: 0.0981

Question: RRIRDRPPRLPRPRPRPGMCPRP was tested. Which “shrunken log2 fold change” value did it give?
Answer: 0.432

Question: How did the “shrunken log2 fold change” value turn out when RRIRDRPPRLPRPRPRPGMGPRP was run?
Answer: 0.645

Question: With RRIRDRPPRLPRPRPRPGNNPRP as the sequence, how does the “shrunken log2 fold change” value read?
Answer: -0.125

Question: With RRIRDRPPRLPRPRPRPGPYPRP as the sequence, how does the “shrunken log2 fold change” value read?
Answer: -0.079

Question: Which “shrunken log2 fold change” value does the source give for RRIRDRPPRLPRPRPRPGQLPRP here?
Answer: -0.284

Question: With RRIRDRPPRLPRPRPRPGRKPRP as the sequence, how does the “shrunken log2 fold change” value read?
Answer: 0.0333

Question: RRIRDRPPRLPRPRPRPHAEPRP was tested. Which “shrunken log2 fold change” value did it give?
Answer: 0.0887

Question: RRIRDRPPRLPRPRPRPHARPRP was tested. Which “shrunken log2 fold change” value did it give?
Answer: 0.0493

Question: How did the “shrunken log2 fold change” value turn out when RRIRDRPPRLPRPRPRPHAWPRP was run?
Answer: 0.1

Question: How did the “shrunken log2 fold change” value turn out when RRIRDRPPRLPRPRPRPHCHPRP was run?
Answer: -0.276

Question: For RRIRDRPPRLPRPRPRPHCLPRP, which “shrunken log2 fold change” value is on record?
Answer: 0.12

Question: Which “shrunken log2 fold change” value does the source give for RRIRDRPPRLPRPRPRPHCSPRP here?
Answer: 0.0218
